From patent US20090175881A1 (SCHERING, published 2009)

T1: rhIL-17A (human, UniProt Q16552 24-155)
T1 sequence: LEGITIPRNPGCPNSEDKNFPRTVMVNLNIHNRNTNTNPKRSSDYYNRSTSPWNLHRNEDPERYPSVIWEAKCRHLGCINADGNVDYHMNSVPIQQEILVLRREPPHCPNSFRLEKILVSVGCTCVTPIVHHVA

T2: cynomolgus monkey IL-17A (cynomolgus monkey, UniProt A0A2K5TTB0 24-155)
T2 sequence: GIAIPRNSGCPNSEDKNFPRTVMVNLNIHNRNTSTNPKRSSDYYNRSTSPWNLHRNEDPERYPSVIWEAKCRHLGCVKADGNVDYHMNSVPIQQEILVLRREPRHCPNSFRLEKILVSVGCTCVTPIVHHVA

T3: FLAG-huIL-17A (human, UniProt Q16552 24-155)
T3 construct: also called FLAG-huL-17A; FLAG-IL-17A
T3 sequence: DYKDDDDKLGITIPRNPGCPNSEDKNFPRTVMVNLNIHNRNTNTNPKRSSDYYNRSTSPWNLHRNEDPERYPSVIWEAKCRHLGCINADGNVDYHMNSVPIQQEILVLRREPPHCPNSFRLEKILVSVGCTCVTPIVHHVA


Experiments:
rhIL-17A [1] = target: T1, rhIL-17A; assay: cell-based or functional assay
cynomolgus monkey IL-17A [2] = target: T2, cynomolgus monkey IL-17A; assay: cell-based or functional assay
FLAG-huIL-17A [3] = target: T3, FLAG-huIL-17A; assay: KinExA, solution equilibrium
Procedure: (§1) The equilibrium dissociation constants (Kd) for anti human IL-17A antibodies were determined using the KinExA 3000 instrument (Sapidyne Instruments Inc., Boise, Id., USA). KinExA uses the principle of the Kinetic Exclusion Assay method based on measuring the concentration of uncomplexed antibody in a mixture of antibody, antigen and antibody-antigen complex. […] The concentration of free antibody is measured by exposing the mixture to a solid-phase immobilized antigen for a very brief period of time. l practice, this is accomplished by flowing the solution phase antigen-antibody mixture past antigen-coated particles trapped in a flow cell. Data generated by the instrument are analyzed using custom software.
(§2) IL-17A was derived from either human (“hu”), cynomolgus monkey (“cyno”), or mouse (“mu”). IL-17A from the same species was used in both the immobilized and solution phases for each KinExA determination. Poly(methyl-methacrylate) (PMMA) particles (98 micron) were coated with human, cyno or mouse IL-17A according to Sapidyne “Protocol for coating PMMA particles with biotinylated ligands having short or nonexistent linker arms.” All experimental procedures were done according to the KinExA 3000 manual. All runs were done in duplicate.
(§3) Two-fold serial dilutions of the antigen were prepared and mixed with the antibody at constant concentration. The mixture was incubated for 2 hours at 25° C. to equilibrate.

cynomolgus monkey IL-17A [4] = target: T2, cynomolgus monkey IL-17A; assay: KinExA, solution equilibrium
Procedure: as §1, §2, §3

cynomolgus monkey IL-17A [5] = target: T2, cynomolgus monkey IL-17A; assay: ECL (Origen); area under the curve
Source text: (§4) Origen electrochemiluminescence technology, developed by IGEN, Inc. (Gaithersburg, Md., USA), and was employed to measure the binding of rat anti-human IL-17A antibodies (and one chimeric antibody) to FLAG-huL-17A. […] Electrochemiluminescence technology uses a stable ruthenium metal chelate (Ori-TAG) which, in the presence of tripropylamine (TPA), generates electrochemiluminescence upon voltage application. Paramagnetic beads, microns in diameter, act as the solid phase and facilitate rapid assay kinetics. The bead/complex is channeled through a flow cell and captured at an electrode by magnetic application. Voltage is applied and resulting electrochemiluminescence is measured.
(§5) ECL assays were performed as follows. Three-fold serial dilutions of anti-human IL-17A mAbs in 50 μl of the assay buffer were made in a 96-well microtiter plate to give 1-3 μg/ml final concentration in the first well. […] Finally 50 μl of Origen Streptavidin-Dynabeads at 0.1 mg/ml was added to each well. […] GraphPad Prism software (GraphPad Software, San Diego, Calif., USA) was used to plot the data and calculate area under the curve, which is a rough measure of binding.

FLAG-huIL-17A [6] = target: T3, FLAG-huIL-17A; assay: ECL (Origen), antibody titrated against biotinylated antigen; area under the curve
Source text: as §4, §5

rhIL-17A [7] = target: T1, rhIL-17A; assay: cell-based or functional assay; remark: listed apart in the source
rhIL-17A [8] = target: T1, rhIL-17A; assay: cell-based or functional assay; remark: listed apart in the source
rhIL-17A [9] = target: T1, rhIL-17A; assay: KinExA, solution equilibrium
Procedure: as §1, §2, §3

rhIL-17A [10] = target: T1, rhIL-17A; assay: sandwich ELISA, IL-17A captured on rat 12E6, antibody titrated
Procedure: Binding of anti-human-IL-17A monoclonal antibodies to rhIL-17A is assessed using an ELISA as follows. Briefly, a capture antibody is bound to the wells of a microtiter plate, after which a fixed concentration of rhIL-17A is added. The monoclonal anti-IL-17A to be assayed is then titrated versus the bound rhIL-17A on the plate to determine the concentration of antibody needed to achieve half-maximal binding. A more detailed protocol follows.
A 96-well microtiter plate is coated with 100 μl/well of capture antibody (rat anti-hIL-17A 12E6, 0.5 μg/ml) in carbonate coating buffer pH 9.5 (the “assay plate”). Plates are incubated covered at 4° C. for 24 to 48 hours. The assay plate is washed three times in a plate washer (SkanWasher, Molecular Devices, Sunnyvale, Calif., USA) and blotted dry. The plate is then blocked with 200 μl/well of ELISA assay buffer (20 mM Tris-HCl, 0.15 M NaCl, pH7.4, 0.5% BSA, 0.05% Tween-20, SM EDTA) for one hour at 25° C. on an orbital shaker. The plate is washed, and 100 μl/well of either adenovirus-derived rhIL-17A or E. coli-derived human IL-17 (IL-17A) (R&D Systems, Minneapolis, Minn., USA) (0.1 g/ml) is added in ELISA assay buffer and incubated for 2 hours at 25° C. on an orbital shaker. […] Plates are incubated for 1.5 hours at 25° C. on an orbital shaker. Plates are washed and 100 μl/well secondary antibody (F(ab′)₂ goat anti-human kappa light chain—HRP, 1:20,000 dilution, BioSource, Carlsbad, Calif., USA) is added, except for assay blank wells. Plates are washed twice (i.e. two cycles of 3 washes per cycle) with plate rotation between cycles. TMB substrate (Kirkegaard & Perry Laboratories, Gaithersburg, Md., USA) is added at 100 μl/well and incubated 3-5 minutes on an orbital shaker. Stop solution is added (100 μl/well) and the plate is read for absorbance at 450-570 um on a plate reader (Versamax, Molecular Devices, Sunnyvale, Calif., USA).

rhIL-17A [11] = target: T1, rhIL-17A; assay: cell-based or functional assay; remark: listed apart in the source
rhIL-17A [12] = target: T1, rhIL-17A; assay: indirect ELISA, rhIL-17A coated on plate
Procedure: Binding of anti-human-IL-17A monoclonal antibodies to rhIL-17A is assessed using an indirect enzyme-linked immunosorbent assay (ELISA). Briefly, a fixed concentration of rhIL-17A is bound directly to the wells of a microtiter plate. The monoclonal anti-IL-17A to be assayed is then is added to the rhIL-17A coated plate, where the antibody is captured and quantitated.
A 96-well U-bottom MaxiSorp plate is coated with 50 μl/well of rhIL-17A (0.5 μg/ml) in carbonate coating buffer (the “assay plate”). Carbonate coating buffer is 2.9 g/L NaHFCO₃, 1.6 g/L Na₂CO₃, pH 9.4. Plates are incubated covered at 4° C. overnight. Monoclonal antibodies to be screened are serially diluted in duplicate across the rows of a V-bottom plate such that the final volume is 60 μl/well (the “serial dilution plate”). The assay plate is washed three times with PBS-Tween in a plate washer (SkanWasher, Molecular Devices, Sunnyvale, Calif., USA) and blotted dry. PBS-Tween is obtained by adding 0.5 ml/L Tween 20 to 1×PBS. Fifty μl from each well of the serial dilution plate is transferred to the assay plate and incubated at 25° C. for one hour. Secondary antibodies are diluted 1/2000 in diluent (PBS-BSA-Tween, which is PBS-Tween with 1 g/L BSA). The secondary antibody for rat monoclonal antibodies is goat anti-rat IgG (H+L)—HRP (Jackson ImmunoResearch Laboratories, Inc., West Grove, Pa., USA). The secondary antibody for chimeric and humanized monoclonal antibodies is F(ab′)₂ goat anti-human IgG Fcγ—HRP (Jackson ImmunoResearch Laboratories, Inc.). The assay plate is washed as before. Diluted secondary antibodies (100 μl/well) are added to the appropriate wells in the assay plate, and the plate is incubated at 25° C. for 45 minutes. The assay plate is washed as before.

Binder	IC50, synoviocyte IL-6 production, rhIL-17A (30 ng/ml) (rhIL-17A [7])	IC50, synoviocyte IL-8 production, rhIL-17A (30 ng/ml) (rhIL-17A [8])	EC50 (rhIL-17A [10])	further results
rat 12E6 (antibody, V domains shown) VH: EVQLEESGGGLVQPGRSLKLSCAASGFTFRDYYMVWVRQAPKKGLEWVASISYEGSSIYYGESVKGRFTISRDNAKSTLYLQMNSLRSEDTATYYCARHGFNPFDYWGRGVMVTVSS VL: DIQMTQSPSSLSASLGDRVTITCRTSQDIGNYLSWFQQKPGKSPRLMIYGASNLEDGVPSRFSGSRSGSDYSLTISSLESEDTAIYYCLQYDKYPNTFGAGTKLELKR	–	–	–	IC50, inhibition of IL-6 production in NHDF cells, rhIL-17A (rhIL-17A [1]): > 70 nM; IC50, inhibition of IL-6 production in NHDF cells, cyno IL-17A (cynomolgus monkey IL-17A [2]): > 70 nM
rat 30C10 (antibody, V domains shown, Parental rat monoclonal antibody (hybridoma PTA-7739); also called 30C10C) VH: EVQLVESGGGLVQPGRSQKLSCVVSGFTFNNYWMTWIRQAPGKGLEWVASVSNTGSSTYYPASVKGRFTISRDNAKSTLYLQMNSLRSEDTATYYCTREGAYYLDYWGQGVMVTVSS VL: DIVMTQSPSSLAVSPGETVTINCKSSQSLFWSESHMNYLAWYQQKPGQSPKLLIYYASTRQSGVPDRFIGSGSGTDFTLTISGVQAEDLAVYYCHHHYDSHTFGAGTKLELKR	–	–	–	IC50, inhibition of IL-6 production in NHDF cells, rhIL-17A (rhIL-17A [1]): 0.5 nM; IC50, inhibition of IL-6 production in NHDF cells, cyno IL-17A (cynomolgus monkey IL-17A [2]): 0.2 nM; Kd (FLAG-huIL-17A [3]): 0.011 nM; Kd (cynomolgus monkey IL-17A [4]): 0.0326 nM; Area Under Peak (cynomolgus monkey IL-17A [5]): 124000; Area Under Peak (FLAG-huIL-17A [6]): 312000
hu 16C10 VH M96A (antibody, human IgG1, V domains shown, Variant of hu 16C10 wt; Human IgG1/kappa; also called hu16C10 (M96A)) VH: QVQLQESGPGLVKPSETLSLTCTVSGFSLPSHSVSWIRQPPGKGLEWIGIIWNNGGTDYNSAFKSRVTISVDTSKNQFSLKLSSVTAADTAVYYCARNAYITDYYYENYFMDAWGQGTLVTVSS VL: DIVMTQSPLSLPVTPGEPASISCKSSQSLLFSENQKNYLAWYLQKPGQSPQLLIYWTSTRQSGVPDRFSGSGSGTDFTLKISRVEAEDVGVYYCQQSYYTPYTFGQGTKVEIKR	60 ng/mL	25 ng/mL	0.06 nM	Kd (rhIL-17A [9]): 0.0099 nM
hu 16C10 Fab (Fab, V domains shown, also called Fab fragment of hu 16C10) VH: QVQLQESGPGLVKPSETLSLTCTVSGFSLPSHSVSWIRQPPGKGLEWIGIIWNQGGTDYNSAFKSRVTISVDTSKNQFSLKLSSVTAADTAVYYCARNAYITDYYYENYFMDAWGQGTLVTVSS VL: DIVMTQSPLSLPVTPGEPASISCKSSQSLLFSENQKNYLAWYLQKPGQSPQLLIYWTSTRQSGVPDRFSGSGSGTDFTLKISRVEAEDVGVYYCQQSYYTPYTFGQGTKVEIKR	–	–	–	Kd (rhIL-17A [9]): 0.0161 nM
hu 16C10 VH M96K (antibody, human IgG1, V domains shown, Variant of hu 16C10 wt; Human IgG1/kappa; also called hu16C10 (M96K)) VH: QVQLQESGPGLVKPSETLSLTCTVSGFSLPSHSVSWIRQPPGKGLEWIGIIWNNGGTDYNSAFKSRVTISVDTSKNQFSLKLSSVTAADTAVYYCARNKYITDYYYENYFMDAWGQGTLVTVSS VL: DIVMTQSPLSLPVTPGEPASISCKSSQSLLFSENQKNYLAWYLQKPGQSPQLLIYWTSTRQSGVPDRFSGSGSGTDFTLKISRVEAEDVGVYYCQQSYYTPYTFGQGTKVEIKR	60 ng/mL	25 ng/mL	0.068 nM	–
hu 16C10 VH N54A (antibody, human IgG1, V domains shown, Variant of hu 16C10 wt; Human IgG1/kappa; also called hu16C10 (N54A)) VH: QVQLQESGPGLVKPSETLSLTCTVSGFSLPSHSVSWIRQPPGKGLEWIGIIWNAGGTDYNSAFKSRVTISVDTSKNQFSLKLSSVTAADTAVYYCARNMYITDYYYENYFMDAWGQGTLVTVSS VL: DIVMTQSPLSLPVTPGEPASISCKSSQSLLFSENQKNYLAWYLQKPGQSPQLLIYWTSTRQSGVPDRFSGSGSGTDFTLKISRVEAEDVGVYYCQQSYYTPYTFGQGTKVEIKR	60 ng/mL	25 ng/mL	0.075 nM	Kd (rhIL-17A [9]): 0.0108 nM
hu 16C10 VH M100hL (antibody, human IgG1, V domains shown, Variant of hu 16C10 wt; Human IgG1/kappa) VH: QVQLQESGPGLVKPSETLSLTCTVSGFSLPSHSVSWIRQPPGKGLEWIGIIWNNGGTDYNSAFKSRVTISVDTSKNQFSLKLSSVTAADTAVYYCARNMYITDYYYENYFLDAWGQGTLVTVSS VL: DIVMTQSPLSLPVTPGEPASISCKSSQSLLFSENQKNYLAWYLQKPGQSPQLLIYWTSTRQSGVPDRFSGSGSGTDFTLKISRVEAEDVGVYYCQQSYYTPYTFGQGTKVEIKR	–	–	0.053 nM	–
hu 16C10 VH N54Q (antibody, human IgG1, V domains shown, Variant of hu 16C10 wt; Human IgG1/kappa; also called hu16C10 (N54Q)) VH: QVQLQESGPGLVKPSETLSLTCTVSGFSLPSHSVSWIRQPPGKGLEWIGIIWNQGGTDYNSAFKSRVTISVDTSKNQFSLKLSSVTAADTAVYYCARNMYITDYYYENYFMDAWGQGTLVTVSS VL: DIVMTQSPLSLPVTPGEPASISCKSSQSLLFSENQKNYLAWYLQKPGQSPQLLIYWTSTRQSGVPDRFSGSGSGTDFTLKISRVEAEDVGVYYCQQSYYTPYTFGQGTKVEIKR	60 ng/mL	25 ng/mL	0.065 nM	Kd (rhIL-17A [9]): 0.007 nM
hu 16C10 VH N60Q (antibody, human IgG1, V domains shown, Variant of hu 16C10 wt; Human IgG1/kappa) VH: QVQLQESGPGLVKPSETLSLTCTVSGFSLPSHSVSWIRQPPGKGLEWIGIIWNNGGTDYQSAFKSRVTISVDTSKNQFSLKLSSVTAADTAVYYCARNMYITDYYYENYFMDAWGQGTLVTVSS VL: DIVMTQSPLSLPVTPGEPASISCKSSQSLLFSENQKNYLAWYLQKPGQSPQLLIYWTSTRQSGVPDRFSGSGSGTDFTLKISRVEAEDVGVYYCQQSYYTPYTFGQGTKVEIKR	–	–	0.074 nM	–
hu 16C10 VH M96F (antibody, human IgG1, V domains shown, Variant of hu 16C10 wt; Human IgG1/kappa) VH: QVQLQESGPGLVKPSETLSLTCTVSGFSLPSHSVSWIRQPPGKGLEWIGIIWNNGGTDYNSAFKSRVTISVDTSKNQFSLKLSSVTAADTAVYYCARNFYITDYYYENYFMDAWGQGTLVTVSS VL: DIVMTQSPLSLPVTPGEPASISCKSSQSLLFSENQKNYLAWYLQKPGQSPQLLIYWTSTRQSGVPDRFSGSGSGTDFTLKISRVEAEDVGVYYCQQSYYTPYTFGQGTKVEIKR	–	–	0.125 nM	–
hu 16C10 VH N60A (antibody, human IgG1, V domains shown, Variant of hu 16C10 wt; Human IgG1/kappa) VH: QVQLQESGPGLVKPSETLSLTCTVSGFSLPSHSVSWIRQPPGKGLEWIGIIWNNGGTDYASAFKSRVTISVDTSKNQFSLKLSSVTAADTAVYYCARNMYITDYYYENYFMDAWGQGTLVTVSS VL: DIVMTQSPLSLPVTPGEPASISCKSSQSLLFSENQKNYLAWYLQKPGQSPQLLIYWTSTRQSGVPDRFSGSGSGTDFTLKISRVEAEDVGVYYCQQSYYTPYTFGQGTKVEIKR	–	–	0.063 nM	–
hu 16C10 VH M100hF (antibody, human IgG1, V domains shown, Variant of hu 16C10 wt; Human IgG1/kappa; also called hu16C10 (M100hF)) VH: QVQLQESGPGLVKPSETLSLTCTVSGFSLPSHSVSWIRQPPGKGLEWIGIIWNNGGTDYNSAFKSRVTISVDTSKNQFSLKLSSVTAADTAVYYCARNMYITDYYYENYFFDAWGQGTLVTVSS VL: DIVMTQSPLSLPVTPGEPASISCKSSQSLLFSENQKNYLAWYLQKPGQSPQLLIYWTSTRQSGVPDRFSGSGSGTDFTLKISRVEAEDVGVYYCQQSYYTPYTFGQGTKVEIKR	70 ng/mL	50 ng/mL	0.049 nM	–
hu 16C10 VH M96L (antibody, human IgG1, V domains shown, Variant of hu 16C10 wt; Human IgG1/kappa) VH: QVQLQESGPGLVKPSETLSLTCTVSGFSLPSHSVSWIRQPPGKGLEWIGIIWNNGGTDYNSAFKSRVTISVDTSKNQFSLKLSSVTAADTAVYYCARNLYITDYYYENYFMDAWGQGTLVTVSS VL: DIVMTQSPLSLPVTPGEPASISCKSSQSLLFSENQKNYLAWYLQKPGQSPQLLIYWTSTRQSGVPDRFSGSGSGTDFTLKISRVEAEDVGVYYCQQSYYTPYTFGQGTKVEIKR	–	–	0.066 nM	–
rat 4C3 (antibody, V domains shown) VH: QVELRESGPGLVQPSQTLSLTCTVSGFSLPSHSVSWIRQPPGKGLEWMGIIWNNGGTDYNSAFKSRLTISRDTSKSQVFLKMNSLQTEDTAMYFCARNMYITDYYYENYFMDAWGQGASVTVSS VL: DIVMTQSPSSLAVSVGETVTLNCKSSQSLLFSENQKNYLAWYQHKSGQSPKLLVYWTSTRQSGVPDRFMGSGSGTDFTLTISSVQAEDLAIYYCQQSYYTPYTFGAGTKLELKR	–	–	–	IC50, inhibition of IL-6 production in NHDF cells, rhIL-17A (rhIL-17A [1]): 0.5 nM; IC50, inhibition of IL-6 production in NHDF cells, cyno IL-17A (cynomolgus monkey IL-17A [2]): 0.2 nM
chimeric 16C10 (antibody, human IgG1, kappa, V domains shown, also called chimeric 16C10C) VH: QVELRESGPGLVQPSQTLSLTCTVSGFSLPSHSVSWIRQPPGKGLEWMGIIWNNGGTDYNSAFKSRLTISRDTSKSQVFLKMNSLQTEDTAMYFCARNMYITDYYYENYFMDAWGQGASVTVSS VL: DIVMTQSPSSLAVSIGETVTLNCKSSQSLLFSENQKNYLAWYQHKSGQSPKLLVYWTSTRQSGVPDRFMGSGSGTDFTLTISSVQAEDLAIYYCQQSYYTPYTFGAGTKLELKR	–	–	–	IC50, Ba/F3 hIL-17Rc-mGCSFR proliferation assay, IL-17A at 100 pM (rhIL-17A [11]): 29 pM; EC50 (rhIL-17A [12]): 0.157 nM; Area Under Peak (FLAG-huIL-17A [6]): 346000
